In patent publication US20210060068A1 (published 2021):

Key:
Test in all cases: SPR
180 = molecular target: 180
163 = molecular target: 163
170 = molecular target: 170
172 = molecular target: 172
145 = molecular target: 145
176 = molecular target: 176
148 = molecular target: 148
182 = molecular target: 182
157 = molecular target: 157
150 = molecular target: 150
175 = molecular target: 175
162 = molecular target: 162
147 = molecular target: 147
177 = molecular target: 177
165 = molecular target: 165
146 = molecular target: 146
151 = molecular target: 151
160 = molecular target: 160
161 = molecular target: 161
149 = molecular target: 149
181 = molecular target: 181
wild-type mouse IL-2Rβ = molecular target: T1, wild-type mouse IL-2Rβ (UniProt P16297 27-240)
T1 chain: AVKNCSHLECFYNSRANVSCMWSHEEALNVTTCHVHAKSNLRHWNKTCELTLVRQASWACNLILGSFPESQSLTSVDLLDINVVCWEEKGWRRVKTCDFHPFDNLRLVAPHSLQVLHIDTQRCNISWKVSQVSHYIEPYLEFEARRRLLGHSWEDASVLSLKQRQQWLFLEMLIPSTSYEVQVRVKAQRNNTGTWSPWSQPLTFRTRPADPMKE

B1: orthoIL-2Rβ (receptor)
chain: AVKNCSHLECFYNSRANVSCMWSHEEALNVTTCHVHAKSNLRHWNKTCELTLVRQASWACNLILGSFPESQSLTSVDLLDINVVCWEEKGWRRVKTCDFHPFDNLRLVAPHSLQVLHIDTQRCNISWKVSQVSDFIEPYLEFEARRRLLGHSWEDASVLSLKQRQQWLFLEMLIPSTSYEVQVRVKAQRNNTGTWSPWSQPLTFRTRPADPMKE
**Q.** Which results are given for B1?
**A.** Kd 180: 6000 nM; Kd 163: 1000 nM; Kd 170: 2000 nM; Kd 172: 2000 nM; Kd 145: 4000 nM; Kd 176: 1000 nM; Kd 148: 4000 nM; Kd 182: 3000 nM; Kd 157: 4000 nM; Kd 150: 3000 nM; Kd 175: 4000 nM; Kd 162: 3000 nM; Kd 147: 8000 nM; Kd 177: 3000 nM; Kd 165: 1000 nM; Kd 146: 600 nM; Kd 151: 2000 nM; Kd 160: 1000 nM; Kd 161: 3000 nM; Kd 149: 4000 nM; Kd 181: 5000 nM

B2: wild-type mouse IL-2 (ligand)
chain: APTSSSTSSSTAEAQQQQQQQQQQQQHLEQLLMDLQELLSRMENYRNLKLPRMLTFKFYLPKQATELKDLQCLEDELGPLRHVLDLTQSKSFQLEDAENFISNIRVTVVKLKGSDNTFECQFDDESATVVDFLRRWIAFCQSIISTSPQ
**Q.** How did the Kd (wild-type mouse IL-2Rβ) turn out when B2 was run?
**A.** 4000 nM
